For test [1], the target named is p38 protein fused with an N-terminal myc epitope, expressed from pcDNA3-myc-P38 (human) (UniProt Q13155). The experiment in a line: cell-based or functional assay.
Test [2] deals with T1, p38 protein (product of the human gene JTV1) fused to the transactivating domain of GAL4, from library … (yeast; human, UniProt Q13155 1-320, limits assumed).
T1 construct: also called plasmid isolated during the screening of the two-hybrid library; fragment corresponding to the p38 protein
T1 sequence: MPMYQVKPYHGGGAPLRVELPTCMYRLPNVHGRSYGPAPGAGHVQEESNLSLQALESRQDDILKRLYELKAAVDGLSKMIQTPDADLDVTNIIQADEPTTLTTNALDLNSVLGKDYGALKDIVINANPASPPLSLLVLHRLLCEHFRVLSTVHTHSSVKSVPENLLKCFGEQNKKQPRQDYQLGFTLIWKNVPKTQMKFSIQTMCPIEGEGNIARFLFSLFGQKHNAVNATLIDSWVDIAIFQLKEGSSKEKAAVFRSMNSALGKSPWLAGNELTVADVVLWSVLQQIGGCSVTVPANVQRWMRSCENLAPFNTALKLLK
The experiment in a line: yeast two-hybrid, b-Gal activity assay in strain L40. The procedure:
A sheet of nitrocellulose is pre-placed on the Petri dish containing the separated yeast clones. This sheet is then immersed in liquid nitrogen for 30 seconds in order to rupture the yeasts and thus to release the b-galactosidase activity. After thawing, the sheet of nitrocellulose is placed, colonies facing upwards, in another Petri dish containing a Whatman paper presoaked in 1.5 ml of PBS solution (60 mM Na2HPO4, 40 mM NaH2PO4, 10 mM KCl, 1 mM MgSO4, pH 7) containing 15 μl of X-Gal (5-bromo-4-chloro-3-indolyl-b-D-galactoside) containing 40 mg/ml of N,N-dimethylformamide. The dish is then placed in an incubator at 37° C. The assay is deemed positive when the colonies on the membrane turn blue after 12 hours.
In order to determine the specificity of interaction between the fragment corresponding to the p38 protein and the central region of parkin, we carried out a two-hybrid test for specific interaction with other, non-relevant proteins. To carry out this test, we transformed the L40 strain with the control plasmids plex9-cAPP or pLex9-HaRasVal12 in place of the plasmid pLex9-Parkin (135-290), encoding, respectively, the cytoplasmic domain of APP or the HaRasVal12 protein, which are fused to the DNA-binding domain of LexA and with the plasmid isolated during the screening of the two-hybrid library. […]

Ends that are not written are not given here.

“human parkin stably overexpressed in the SH-SY5Y-VI clone (from UniProt O60260 1-465) (enzyme)” yielded a proportion of transfected cells exhibiting p38 aggregates in test [1] of 8%.

B1: cytoplasmic domain of the APP protein fused to LexA, expressed from pLex9-cAPP (other, UniProt P05067 723-770, looked up)
chain: LKKKQYTSIHHGVVEVDAAVTPEERHLSKMQQNGYENPTYKFFEQMQN
modifications: also: fused to LexA
notes: domain: cytoplasmic domain; Control bait in the two-hybrid specificity test; also called pLex-cAPP; not shown: bacterial repressor LexA as encoded by vector pLex9 (pBTM116)
B1: the binding result in test [2] is given as “no binding”.

(Values after US20040214763A1 (AVENTIS PHARMA S A, published 2004).)
